Measured values reported in the Human Domainome abundance scans (Beltran et al. 2025).
± gives the uncertainty stated by the source.

B1: Chromodomain-helicase-DNA-binding protein 5, residues 411 to 463; numbered along this chain, Q8TDI0 (parent)
chain: EEDDHMEFCRVCKDGGELLCCDACPSSYHLHCLNPPLPEIPNGEWLCPRCTCP

Variants of: B1
Test: abundance fitness (aPCA) (normalised: wild type 0, dead -1); higher = more abundant; growth selection in yeast, the domain comes from the species named
Conditions: Homo sapiens

D22G and D22Q are within error of each other in abundance fitness: 0.049 ± 0.05 for the first, 0.099 ± 0.048 for the second.

D22N and D22E are within error of each other in abundance fitness: 0.093 ± 0.053 for the first, 0.061 ± 0.077 for the second.

First: D22W
Second: D22A
The abundance fitness of the first is lower: -0.082 ± 0.064 for the first, 0.05 ± 0.045 for the second.

D22S and D22I are within error of each other in abundance fitness: 0.034 ± 0.041 for the first, -0.04 ± 0.068 for the second.

D22V and L19T are within error of each other in abundance fitness: -0.085 ± 0.046 for the first, -0.169 ± 0.11 for the second.

Going from L19E to L19Y, the abundance fitness rises from -0.346 ± 0.12 to 0.099 ± 0.14.

First: L19F
Second: L19W
The abundance fitness of the first is higher: 0.001 ± 0.058 for the first, -0.288 ± 0.089 for the second.

Going from L19S to L19R, the abundance fitness rises from -0.537 ± 0.15 to -0.078 ± 0.06.

L19C and D14C are within error of each other in abundance fitness: -0.317 ± 0.089 for the first, -0.291 ± 0.083 for the second.

First: D14P
Second: D14Y
The abundance fitness of the first is lower: -0.984 ± 0.17 for the first, -0.452 ± 0.15 for the second.

Going from D14I to D14S, the abundance fitness rises from -0.519 ± 0.15 to -0.17 ± 0.073.

D14V and D14K are within error of each other in abundance fitness: -0.157 ± 0.12 for the first, -0.133 ± 0.1 for the second.

First: D14G
Second: D14N
The abundance fitness of the first is higher: 0.086 ± 0.085 for the first, -0.061 ± 0.048 for the second.

S26I and S26G are within error of each other in abundance fitness: -0.08 ± 0.1 for the first, -0.036 ± 0.073 for the second.

Going from H29C to H29G, the abundance fitness falls from -0.164 ± 0.082 to -0.825 ± 0.063.

H29V and H29T are within error of each other in abundance fitness: -0.882 ± 0.11 for the first, -1.14 ± 0.41 for the second.

H29K and H29I are within error of each other in abundance fitness: -1.06 ± 0.25 for the first, -1.2 ± 0.49 for the second.

Compared with H29L, H29M is lower in abundance fitness: -0.528 ± 0.076 for the first, -0.87 ± 0.15 for the second.

Compared with H29W, L46A is higher in abundance fitness: -1.25 ± 0.26 for the first, -0.027 ± 0.07 for the second.

L46V and L46S are within error of each other in abundance fitness: -0.017 ± 0.054 for the first, 0.061 ± 0.059 for the second.

First: L46M
Second: L46G
The abundance fitness of the first is higher: -0.188 ± 0.082 for the first, -0.502 ± 0.081 for the second.

Compared with L46F, L46Y is lower in abundance fitness: 0.101 ± 0.091 for the first, -0.115 ± 0.093 for the second.

N42C and N42G are within error of each other in abundance fitness: 0.033 ± 0.1 for the first, 0.12 ± 0.06 for the second.

N42S and N42Y are within error of each other in abundance fitness: 0.058 ± 0.053 for the first, 0.059 ± 0.12 for the second.

C21A and C21F are within error of each other in abundance fitness: -0.83 ± 0.061 for the first, -0.844 ± 0.15 for the second.

C21V and C21Y are within error of each other in abundance fitness: -0.932 ± 0.054 for the first, -0.946 ± 0.2 for the second.

Going from C21I to C21Q, the abundance fitness rises from -1.13 ± 0.2 to -0.633 ± 0.079.

Going from C21W to C21G, the abundance fitness rises from -0.958 ± 0.071 to -0.809 ± 0.067.

First: C21H
Second: C21P
The abundance fitness of the first is lower: -0.773 ± 0.17 for the first, -0.483 ± 0.086 for the second.

Going from C21R to E39L, the abundance fitness rises from -1.09 ± 0.099 to -0.418 ± 0.13.

E39M and E39V are within error of each other in abundance fitness: -0.113 ± 0.22 for the first, 0.025 ± 0.068 for the second.

Going from E39W to E39P, the abundance fitness rises from -0.617 ± 0.24 to 0.139 ± 0.12.

E39Y and E39Q are within error of each other in abundance fitness: -0.329 ± 0.37 for the first, 0.008 ± 0.19 for the second.

E39I and E39N are within error of each other in abundance fitness: -0.138 ± 0.23 for the first, 0.116 ± 0.18 for the second.

E39F and I40P are within error of each other in abundance fitness: -0.235 ± 0.27 for the first, 0.052 ± 0.079 for the second.

I40D and I40K are within error of each other in abundance fitness: -0.534 ± 0.35 for the first, -0.104 ± 0.18 for the second.

I40Y and I40C are within error of each other in abundance fitness: -0.059 ± 0.33 for the first, 0.116 ± 0.1 for the second.

C12E and C12W are within error of each other in abundance fitness: -0.504 ± 0.049 for the first, -0.552 ± 0.11 for the second.

Compared with C12K, H31G is higher in abundance fitness: -0.684 ± 0.12 for the first, 0.089 ± 0.079 for the second.

H31N and H31D are within error of each other in abundance fitness: 0.121 ± 0.069 for the first, 0.072 ± 0.12 for the second.

H31W and H31Q are within error of each other in abundance fitness: -0.361 ± 0.11 for the first, -0.436 ± 0.15 for the second.

H31A and H31L are within error of each other in abundance fitness: -0.092 ± 0.084 for the first, -0.246 ± 0.086 for the second.
